For two substances, Kd results are on record in article PMC11342882.

This test addresses FcRn with a C-terminal 6×His-tag and complexed with beta-2-microglobulin (UniProt P55899). Put plainly: BLI.

Sequence of FcRn with a C-terminal 6×His-tag and complexed with beta-2-microglobulin (P55899 24-297, chain 1 of 2): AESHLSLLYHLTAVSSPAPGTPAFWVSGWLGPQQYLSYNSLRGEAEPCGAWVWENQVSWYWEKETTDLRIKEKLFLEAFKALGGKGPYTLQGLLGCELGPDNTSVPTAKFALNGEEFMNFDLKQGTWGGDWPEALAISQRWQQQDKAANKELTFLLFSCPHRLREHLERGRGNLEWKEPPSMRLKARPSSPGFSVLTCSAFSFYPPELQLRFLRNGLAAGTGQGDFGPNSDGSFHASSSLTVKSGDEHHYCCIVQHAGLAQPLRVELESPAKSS
Sequence of FcRn with a C-terminal 6×His-tag and complexed with beta-2-microglobulin (P61769 21-119, chain 2 of 2, further chain): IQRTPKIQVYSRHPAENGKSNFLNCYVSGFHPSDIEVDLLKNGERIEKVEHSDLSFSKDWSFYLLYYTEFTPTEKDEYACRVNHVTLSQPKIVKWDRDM

In the case of “sACE2_(2).v2.4-IgG1 (from UniProt Q9BYF1-1 18-732) (Fc fusion)”, the Kd (in general, the free concentration of one partner at which half of the binding sites on the other are occupied at equilibrium, for simple one-to-one binding) is over 100 nM.
“sACE2_(2).v2.4-IgG1(YTE) from Expi293F (from UniProt Q9BYF1-1 18-732) (Fc fusion)” returned a Kd of 21 nM.
